This note sets out measurements from patent US20120308522A1.

The target in experiment [1] is high-affinity receptors for VEGF in HUVECs. Kind of experiment: cell-based or functional assay.
Experiment [2] deals with Flt-1 VEGF receptor (human (on HUVEC)) (UniProt P17948). Kind of experiment: cell-based or functional assay.
Sequence of UniProt P17948 (P17948 27-1338): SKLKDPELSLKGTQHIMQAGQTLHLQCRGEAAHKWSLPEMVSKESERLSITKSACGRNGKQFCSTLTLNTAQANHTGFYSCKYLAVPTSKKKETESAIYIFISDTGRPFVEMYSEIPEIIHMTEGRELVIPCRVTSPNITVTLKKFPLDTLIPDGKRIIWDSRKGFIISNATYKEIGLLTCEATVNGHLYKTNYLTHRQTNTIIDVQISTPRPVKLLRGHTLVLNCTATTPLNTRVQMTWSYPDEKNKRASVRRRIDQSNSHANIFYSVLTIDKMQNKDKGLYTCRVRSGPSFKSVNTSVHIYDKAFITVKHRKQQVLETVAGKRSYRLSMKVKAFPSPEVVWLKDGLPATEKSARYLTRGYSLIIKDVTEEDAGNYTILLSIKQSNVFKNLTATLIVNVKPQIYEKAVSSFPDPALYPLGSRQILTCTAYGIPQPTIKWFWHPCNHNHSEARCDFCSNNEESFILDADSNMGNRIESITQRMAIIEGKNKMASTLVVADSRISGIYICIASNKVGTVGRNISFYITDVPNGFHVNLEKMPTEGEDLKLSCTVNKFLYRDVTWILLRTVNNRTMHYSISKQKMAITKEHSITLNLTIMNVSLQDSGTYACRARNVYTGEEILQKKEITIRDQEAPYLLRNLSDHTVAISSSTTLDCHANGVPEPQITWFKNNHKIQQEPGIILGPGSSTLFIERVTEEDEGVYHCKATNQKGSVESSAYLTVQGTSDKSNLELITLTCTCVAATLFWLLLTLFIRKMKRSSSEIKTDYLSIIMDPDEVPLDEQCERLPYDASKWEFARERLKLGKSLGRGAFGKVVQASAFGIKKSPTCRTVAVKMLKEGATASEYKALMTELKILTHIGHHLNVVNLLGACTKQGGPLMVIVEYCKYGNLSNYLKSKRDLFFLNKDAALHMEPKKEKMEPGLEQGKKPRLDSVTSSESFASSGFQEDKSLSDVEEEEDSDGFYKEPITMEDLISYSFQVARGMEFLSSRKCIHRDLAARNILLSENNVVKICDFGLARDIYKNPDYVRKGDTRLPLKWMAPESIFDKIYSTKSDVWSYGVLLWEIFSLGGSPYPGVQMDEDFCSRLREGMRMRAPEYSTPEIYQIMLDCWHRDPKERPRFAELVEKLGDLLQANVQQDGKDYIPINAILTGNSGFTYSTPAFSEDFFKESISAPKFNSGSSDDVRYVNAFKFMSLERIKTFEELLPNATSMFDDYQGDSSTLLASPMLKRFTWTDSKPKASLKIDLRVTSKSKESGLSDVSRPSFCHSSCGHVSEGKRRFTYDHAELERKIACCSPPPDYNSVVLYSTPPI

In experiment [1], “recombinant human VEGF (vascular endothelial growth factor) (from UniProt P15692 27-191) (ligand)” gave an arachidonic acid release from prelabelled HUVEC, concentration of maximum effect of 10 to 20 ng/mL; an arachidonic acid release from prelabelled HUVEC, half-maximum effect of 2.5 to 5 ng/mL; a mean increase in release of labelled arachidonic acid above basal level of 1.6 fold.

B1: recombinant placenta growth factor (P1GF) (ligand, UniProt P49763-2 21-149, looked up)
chain: AVPPQQWALSAGNGSSEVEVVPFQEVWGRSYCRALERLVDVVSEYPSEVEHMFSPSCVSLLRCTGCCGDENLHCVPVETANVTMQLLKIRSGDRPSYVELTFSQHVRCECRPLREKMKPERCGDAVPRR
With B1, the mean fold increase in 6-keto PGF1a above control, 60 min with 60 ng/ml P1GF in experiment [2] was 1.3 fold.
